Data taken from the DeepSol protein solubility set.

Assay: soluble on expression in E. coli; label from the status in PepcDB or PDB records
For “GTIVITGTITDTTCVIEDPSGPNHTKVVQLPKISKNALKANGDQAGRTPFIIKLKDCPSSLGNGVKAYFEPGPTTDYSTGDLRAYKMVYATNPQTQLSNITAATEAQGVQVRISNLNDSKITMGANEATQQAAGFDPEVQTGGTSRTVTMRYLASYVKKNGDVEASAITTYVGFSVVYP”, the “soluble on expression in E. coli” value was “not soluble”. In the case of “MSDESEALLRVDHVKYRKAGDGKSPIGRLALFTDFIEWRDNASPEVFTCKFIRINGQRVSPPHKSKVQLQLILKNEDQATFVFLNPSASKEDLVKERDAVKEALQSALVKHRHRVNELAKSVESQSKQVELQAKQKILQEDRNLEKLYQNLVATKLITPDDFWSDYYQKEGVSEDKIGINGAFLANIVQQEGTNGVRLNLNPEIIQAIYSTYPAGQYWQNRENKKKCKEILKFTIQCEYLTRKISRSENYIQKKNLELVPHEMSEENFWKKFFQSHYFHREREVLPNPKDPFAECVRDDEEEMTKMTAEKIQRKRFDLEHIDDNGLRDFIHKSESQQKSAKTTLIKRCNYLSEKILATSWRSGEAAPTTSAAANQKKGFGVLDRLVAETETRLESEDLATKEAEDEVQIVRISSSAKASQAKYSKPDMTRYKALVTDYFQNSSVEDILHRNEMLLDQQEMETWEMEEAMETDNNEVPPPENWCQSAGDLAKVRDVHSAVREICRQFWKSFPPIDKASEEKLNRMAGTLSKYRDDIRNSDISKENLTHCIQMIDLAVDKFEAYEMKKMK”, the “soluble on expression in E. coli” value was “not soluble”. With “VMHSSLYTSVDDKLHGLSENPQAVIQLAINRATEEIKDLENARADASKVEIKPNVSSNTEVILFDKDFTQLLSGNRFLGLDKIKLEKKELGHIYQIQVFNSYGQEEIYRVILMETNISSVSTNIKYAAVLINTSQLEQASQKHEQ” the “soluble on expression in E. coli” value was “not soluble”. In the case of “MQANAIDFENYELLQDDVCARRIVAAKQKLGKRAIILAHHYQRADVYCHADLTGDSLKLSYLAARTDTEFLVFCGVHFMAEVADILSSSEQTVILPDLSAGCSMADMANLTKVERVWRELAEVLDPDERVTPVTYINSSADLKAFCGQHDGIVCTSSNAVKILQWAFSRREKVLFFPDQHLGRWSGYKMGLSPDEMPVWDFDEPMGGLTPEQIEKARILLWKGHCSVHQMFQPQHILRFRNQYPDGLVISHPECSFEVCKASDYVGSTEYIINTIRAAKSGTRWLVGTELNLVGRIAEEFKAEGKIIQFMSPMVCMCSTMARIDPQHLAWSLENLAEGRVVNQIRVPEPQASLAKLTLEKMLEVSKLEHHHHHH”, the “soluble on expression in E. coli” value was “not soluble”. With “MAGPSDRTFSDQTEEIMQATYRALREHGYADLTIQRIADEYGKSTAAVHYYYDTKDDLLAAFLDYLLERFVDSIHDVETTDPEARLNLLLDELLVKPQENPDLSVALLEMRSQAPYKEAFSDRFRQNDEYVRYMLKAVINHGIDEGVFTDVDAEHVTRSLLTIIDGARTRAVMLDDTEELETARQTASEYADAMLQ” the “soluble on expression in E. coli” value was “soluble”. In the case of “MLDFAQLPPEVNSALMYAGPGSGPMLAAAAAWEALAAELQTTASTYDALITGLADGPWQGSSAASMVAAATPQVAWLRSTAGQAEQAGSQAVAAASAYEAAFFATVPPPEIAANRALLMALLATNFLGQNTAAIAATEAQYAEMWAQDAAAMYGYAGASAAATQLSPFNPAAQTINPAGLASQAASVGQAVSGAANAQALTDIPKALFGLSGIFTNEPPWLTDLGKALGLTGHTWSSDGSGLIVGGVLGDFVQGVTGSAELDASVAMDTFGKWVSPARLMVTQFKDYFGLAHDLPKWASEGAKAAGEAAKALPAAVPAIPSAGLSGVAGAVGQAASVGGLKVPAVWTATTPAASPAVLAASNGLGAAAAAEGSTHAFGGMPLMGSGAGRAFNNFAAPRYGFKPTVIAQPPAGG”, the “soluble on expression in E. coli” value was “not soluble”. In the case of “MSLNDGRLEIFQEGKPGRRIDEDQVFAAVLDALTKPAEQRTVTVAFREIPPPITAANLDQLGITTLIGVGRSDFTGSAAYRVTNIQAGMRLLHGVLIAPGEEFSFNQTIGRIDRSNGFVEGYAIIQNRTQLEWGGGICQDSTTMFRAAFWAGLPITERWGHSFYISWYDRYAFGPYGDGPGMDATIFTGGPDLKFLNDTGGWLLIQTLVDTHRHLAEVRLYGPDTGRKVLLEGPIITNRTPPPEEPVYVASPDRPVGQPRQSDTARGGMDILFTRIVLGPDGKEIERRQFVTRFKPWPNIFEYNPADEGHHHHHH”, the “soluble on expression in E. coli” value was “soluble”. In the case of “MGSSHHHHHHGGTGENLYFQGGSGAGIKSRERLRRDQERQLRQLPFLYHRVKDLQDTCERLEQELASSHQRVAAFQQEAFALRSLIKFTEHPELAAAAKNDAAKHVLQEEVRELRNQVQRLRREKELSLRQSEEACEAAEFYKELCDQLYEESLRAAEAIAVGGATSGLESVVTPLPNRNVDDMTLAVSTAPSTATSMEAQMRQLHGALELERARSSALVETVSLLHTAMKATTAAGTKRSTPAPDSSAGWAERRREDDTSGICASRSRVFADDTRKSRTRLKRLAAVLRVENRLLTQRVTEVVARNMRCVKEISALKLANKRLELNQRQES”, the “soluble on expression in E. coli” value was “soluble”. With “MEIRWMKSFVAVAEELNYGRAAEVLHIAQPAVSQQVQQLEKRLGVKLFDRTTRSVRLTAAGERFLQPCKDALAGIVRAVDAAVIADPAVEGRVRVGFSGAYGQTELSSLARSVRRRYPLIDLVLEGATVSGQILDEIWEGQLDLGIVSDAVSHPHVLTRQISVEYLSALLPSDHPLAERKSIDLAELRDETFVANPAATGSTLRRDLLAACRDAGFTPNIVQETTDGIVLTALVAAGVGVALVPGDVQTYPNRVVLVPLDAGRYEVRAALAWSDRPVSPVVQTVLDLAAEVLPSPDALAVEQ” the “soluble on expression in E. coli” value was “not soluble”. In the case of “MAGHSKWANTRHRKAAQDAKRGKIFTKIIRELVTAAKLGGGDPDANPRLRAAVDKALSNNMTRDTLNRAIARGVGGDDDANMETIIYEGYGPGGTAIMIECLSDNRNRTVAEVRHAFSKCGGNLGTDGSVAYLFSKKGVISFEKGDEDTIMEAALEAGAEDVVTYDDGAIDVYTAWEEMGKVRDALEAAGLKADSAEVSMIPSTKADMDAETAPKLMRLIDMLEDCDDVQEVYHNGEISDEVAATL”, the “soluble on expression in E. coli” value was “soluble”. With “MNQNQNKKTKIVALSMMNSQTSGNPSRGTTKFESYTFDYWQYIDTLVYWGGSSGEGIIVTPSADVIDEAHSNGVPVLGTIFLPPKEYGGKVDWVKTMLKKDEQGQYPFASQMVKVAKTYGFEGWFINEETQGLNADDAANMKALIQQVKKEDSSLQIMWYDAMTKDGKVDWQNQLNDQNATFVQDKAADAMFLNFWWTQNNLADQKLLEKSNLYAKNHNIDPYNIYAGIDVQAKDVQTPVKWNLLEKGNQATQTSIGLYAASATYTNASNWDDFQNRESAFWVNQKADPRQVDHSVNESWTGLSKYVLEKSAISGNEFNTNFNLGNGYNYFKAGQKISEMDWNDRSLAGILPSYRWIIDNEGKNKISPSFDFANAYNGGNSLKFMAEHLDAGKSSNITLFASDLKIAMGAKFSVSMRSDQALKVSAILELANGQKVSIAGDKSLTENWSKLEHHHHHH” the “soluble on expression in E. coli” value was “soluble”. For “DEETKAFEALLSNIVKPVASDIQARTVVLTWSPPSSLINGETDESSVPELYGYEVLISSTGKDGKYKSVYVGEETNITLNDLKPAMDYHAKVQAEYNSIKGTPSEAEIFTTLSCEPDIPNPPRI”, the “soluble on expression in E. coli” value was “soluble”. With “MTENKSFKESHPLDDFISDKELSNTTIQKEKLTIEQQKQVDTISKQINPLDNEGLLAFGSDLQKQMSQFSHQMLDEVQSKDVGPIGDTLSDLMSKLKSVNPNELNTDKPSMLKRIFSRAKSSINEIFSRMQSVSAQVDRITIQLQKHQTHLTRDIELLDTLYDKNKQYFDDLSLHIIAAQQKKLQLENEKLPQLQQQAQQSTNQMDIQQVSDMQQFIDRLDKRIYDLQLSRQIALQTAPQIRMIQNVNQALAEKIQSSILTSIPLWKNQMAIALTLMRQRNAVAAQRAVTDTTNDLLTANAEMLKQNAIETATENERGIVDLDTLKRTQRNIIETIEETLIIQQHGREERQLAEKELQQLEQDLKSHLVNIKGPNKQS” the “soluble on expression in E. coli” value was “not soluble”. In the case of “MAHHHHHHMGTLEAQTQGPGSMAKTMKAAVVRAFGKPLTIDEVPIPQPGPGQIQVAIQASGVCHTDLHAAEGDWPVKPNPPFIPGHEGVGFVSAVGSGVKHVKEGDRVGIPWLYTACGHCRHCLGGWETLCEEQLNTGYSVNGGFAEYVVADPNFVGHLPKNIDFNEIAPVLCAGVTVYKGLKVTDTKPGDWVVISGIGGLGHMAVQYARAMGLNVAAVDIDDRKLDLARRLGATVTVNAKTVADPAAYIRKETDGGAQGVLVTAVSPKAFEQALGMVARGGTVSLNGLPPGDFPLSIFNMVLNGVTVRGSIVGTRLDLQESLDFAADGKVKATIQTGKLEDINAIFDDMRQGNIEGRIVMDLTQ”, the “soluble on expression in E. coli” value was “soluble”.
